In US20240343800A1 (Merck KGaA, published 2024):

B1: 82H02 VL1.04 (bispecific TCE of Table 29) (bispecific antibody, V domains shown)
VH: EVQLLESGGGLVQPGGSLRLSCAASGFTFTSYAMSWVRQAPGKGLEWVSTISGSGGGTYYTDSVKGRFTISRDNSKNTLYLQMNSLRAEDTAVYYCAQGSSIFDYWGQGTLVTVSS
VL: not shown
notes: also called 82H02 v1.04
B2: 82H02 VL1.06 (low) (bispecific TCE of Table 29) (bispecific antibody, V domains shown)
VH: EVQLLESGGGLVQPGGSLRLSCAASGFTFTSYAMSWVRQAPGKGLEWVSTISGSGGGTYYTDSVKGRFTISRDNSKNTLYLQMNSLRAEDTAVYYCAQGSSIFDYWGQGTLVTVSS
VL: EIVLTQSPATLSLSPGERATLSCRASQSVSSYLAWYQQKPGQAPRLLIYDASNRATGIPARFSGSGSGTDFTLTISSLEPEDFAVYYCQQRSNWPPFTFGQGTRLEIK
notes: also called 82H02 v1.06
B3: 82H02 VL1.09 (bispecific TCE of Table 29) (bispecific antibody, V domains shown)
VH: EVQLLESGGGLVQPGGSLRLSCAASGFTFTSYAMSWVRQAPGKGLEWVSTISGSGGGTYYTDSVKGRFTISRDNSKNTLYLQMNSLRAEDTAVYYCAQGSSIFDYWGQGTLVTVSS
VL: EIVLTQSPATLSLSPGERATLSCRASQSVSSYLAWYQQKPGQAPRLLIYDASNRATGIPARFSGSGSGTDFTLTISSLEPEDFAVYYCQQRSNWPPVTFGQGTRLEIK
notes: also called 82H02 v1.09
B4: 82H02 VL1.07 (high) (bispecific TCE of Table 29) (bispecific antibody, V domains shown)
VH: EVQLLESGGGLVQPGGSLRLSCAASGFTFTSYAMSWVRQAPGKGLEWVSTISGSGGGTYYTDSVKGRFTISRDNSKNTLYLQMNSLRAEDTAVYYCAQGSSIFDYWGQGTLVTVSS
VL: EIVLTQSPATLSLSPGERATLSCRASQSVSSYLAWYQQKPGQAPRLLIYDASNRATGIPARFSGSGSGTDFTLTISSLEPEDFAVYYCQQRSNWPPSTFGQGTRLEIK
notes: also called 82H02 v1.07
B5: 82H02 VL1.05 (bispecific TCE of Table 29) (bispecific antibody, V domains shown)
VH: EVQLLESGGGLVQPGGSLRLSCAASGFTFTSYAMSWVRQAPGKGLEWVSTISGSGGGTYYTDSVKGRFTISRDNSKNTLYLQMNSLRAEDTAVYYCAQGSSIFDYWGQGTLVTVSS
VL: EIVLTQSPATLSLSPGERATLSCRASQSVSSYLAWYQQKPGQAPRLLIYDASNRATGIPARFSGSGSGTDFTLTISSLEPEDFAVYYCQQRSNWPPLTFGQGTRLEIK
notes: also called 82H02 v1.05
B6: 82H02 VL1.08 (bispecific TCE of Table 29) (bispecific antibody, V domains shown)
VH: EVQLLESGGGLVQPGGSLRLSCAASGFTFTSYAMSWVRQAPGKGLEWVSTISGSGGGTYYTDSVKGRFTISRDNSKNTLYLQMNSLRAEDTAVYYCAQGSSIFDYWGQGTLVTVSS
VL: EIVLTQSPATLSLSPGERATLSCRASQSVSSYLAWYQQKPGQAPRLLIYDASNRATGIPARFSGSGSGTDFTLTISSLEPEDFAVYYCQQRSNWPPYTFGQGTRLEIK
notes: also called 82H02 v1.08

The binders below were run against T1, recombinant human ROR1 extracellular domain protein (human, UniProt Q01973 30-406) (assay: biolayer interferometry, TCE immobilized).
T1 construct: also called Human/Cyno ROR1
Excerpt: This example describes biolayer interferometry experiments that were used to determine the binding affinities of bispecific TCEs and sequence optimized variants of the present disclosure.
With B1 the Kd was 50.7 nM.
Work on B2 yielded a Kd of 99 nM.
In the case of B3, the Kd is reported as 160 nM.
In the case of B4, the Kd is reported as 4.2 nM.
B5 was tested, and the Kd was 154 nM.
B6 gave a Kd of 166 nM.
